± gives the uncertainty stated by the source.
Experiment: protein stability index of a GFP-peptide fusion (yeast GPS) (PSI 1-4); higher = more stable; sorted into four equal gates, so the index is relative within each strain
How it was run: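 Sequencing reads from sorted gates were used to score each peptide. The library consisted of tiled 17-residue yeast protein peptides fused downstream of GFP on a Cherry-expressing plasmid, pooled and carried in yeast. Mid-log cultures in leucine-free medium were split into four equal gates by GFP/Cherry ratio, and each gate's plasmids were PCR-amplified and Illumina-sequenced. The protein stability index adds up, over all gates, the read frequency multiplied by the gate number.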

Row | Sequence | protein stability index (doa10∆) | protein stability index (pdr5∆) | protein stability index (san1∆) | protein stability index (ubr1∆)
1 | LNDMNTEISGLKNVNKR [SMC3] | 3.26 ± 0.064 | 3.27 ± 0.072 | 3.06 ± 0.058 | 3.12 ± 0.045
2 | ASFNDTFVHVTDLSGKE [RPS14A] | 2.17 ± 0.097 | 1.36 ± 0.093 | 1.76 ± 0.22 | 1.15 ± 0.082
3 | RNSWNFALIDYFYDLDV [BRN1] | 2.18 ± 0.057 | 1.87 ± 0.05 | 1.33 ± 0.093 | 2.06 ± 0.044
4 | VTKITDMLLHKYYIVSS [SRB8] | 1.45 ± 0.076 | 1.14 ± 0.068 | 1.65 ± 0.15 | 1.57 ± 0.077
5 | VNLPGGILRRKSESDEL [RRP4] | 3.31 ± 0.15 | 3.29 ± 0.15 | 2.88 ± 0.1 | 3.29 ± 0.14
6 | LLHEMTQTYMQMIELNR [GRR1] | 2.18 ± 0.072 | 2.11 ± 0.051 | 2.2 ± 0.088 | 1.68 ± 0.048
7 | FEQFEKFYEEKLWFQLS [RPN9] | 3.08 ± 0.27 | 2.58 ± 0.26 |  | 1.72 ± 0.13
8 | KGIDSVVRRRFRGNISQ [RPL32] | 2.82 ± 0.14 | 2.94 ± 0.26 |  | 2.89 ± 0.12
9 | RTPHEIQEANSVDMSAL [RIP1] |  | 3.46 ± 0.21 |  | 3.24 ± 0.076
10 | SVKLKQKRLEAGALNLA [DIS3] | 3.42 ± 0.13 | 3.11 ± 0.12 | 3.36 ± 0.081 | 3 ± 0.071
11 | DWNKRFSHLAGGKIINK [BRR2] | 2.84 ± 0.075 | 3.33 ± 0.14 | 3.12 ± 0.2 | 3 ± 0.089
12 | SLGIAQPKGVILYGPPG [RPT6] | 2.71 ± 0.061 | 2.89 ± 0.072 | 2.77 ± 0.089 | 2.91 ± 0.077
13 | SNEEQRNLDSATLKEIK [SMC3] | 3.5 ± 0.14 | 3.21 ± 0.13 | 3.46 ± 0.084 | 3.48 ± 0.16
14 | LGLFIHKISFSGTKSEV [YJL039C/NUP192] | 1.86 ± 0.072 | 2.14 ± 0.055 | 1.88 ± 0.085 | 2.12 ± 0.052
15 | PNRIKLSKEVPFSYLID [SRB5] | 2.44 ± 0.062 | 2.15 ± 0.058 | 1.98 ± 0.1 | 2.12 ± 0.06
16 | KKVGITGKYGVRYGSSL [RPL43A] | 3.16 ± 0.065 | 3.28 ± 0.051 | 3.3 ± 0.045 | 3.15 ± 0.033
17 | SKMYNTDKKAFLGALKY [PRP8] | 2.52 ± 0.092 | 2.27 ± 0.071 | 2.47 ± 0.1 | 2.63 ± 0.11
18 | IYQTLIALNLDTTVNDC [SNF2] | 2.19 ± 0.035 | 2.53 ± 0.04 | 2.25 ± 0.054 | 2.35 ± 0.033
19 | IGNLITRQFEGRSNEIV [PRP8] | 3.05 ± 0.075 | 3.29 ± 0.087 | 3 ± 0.058 | 2.7 ± 0.074
20 | ETESSVSNNEANTPSIP [SWI3] | 3.09 ± 0.053 | 3.12 ± 0.069 | 3.11 ± 0.054 | 3.15 ± 0.054
21 | GYDKKKNKPELYQIDYL [PRE1] | 3.04 ± 0.086 | 2.91 ± 0.098 | 3.02 ± 0.066 | 3.08 ± 0.09
22 | VMSIESLVEVVFYRGMT [FAS1] | 1.89 ± 0.1 | 2.12 ± 0.06 | 1.39 ± 0.12 | 2.66 ± 0.097
23 | TANATANVNASAMPAPY [DSN1] | 3.11 ± 0.042 | 3.17 ± 0.037 | 3.083 ± 0.029 | 3.1 ± 0.034
24 | YLLEELESYLIVHHPYQ [SSN8] | 2.56 ± 0.058 | 2.45 ± 0.06 | 2.43 ± 0.056 | 2.36 ± 0.044

Row | Sequence | protein stability index (doa10∆) | protein stability index (pdr5∆) | protein stability index (san1∆) | protein stability index (ubr1∆)
25 | FYLMVSSLSFGPENALN [YJL039C/NUP192] | 1.68 ± 0.048 | 1.37 ± 0.047 | 1.39 ± 0.12 | 1.31 ± 0.051
26 | NGQEQQGPVKNTQLHGP [RGR1] | 3.02 ± 0.077 | 3.12 ± 0.057 | 3.05 ± 0.052 | 3.1 ± 0.044
27 | DGGLEEETDEVSSESSD [SIR3] | 3.3 ± 0.099 | 3.3 ± 0.11 | 3.2 ± 0.089 | 3.24 ± 0.086
28 | NKEYTLVHGIFGAKMSR [SIN4] | 2.75 ± 0.12 | 2.98 ± 0.13 | 3.15 ± 0.19 | 3.09 ± 0.11
29 | NTHLGARNVQVHQEPYV [RPS0A] | 2.06 ± 0.087 | 2.25 ± 0.053 | 2.59 ± 0.09 | 2.11 ± 0.058
30 | FSWISVVNDLVGEKLVV [SIR3] | 3.42 ± 0.13 | 2.58 ± 0.14 | 3.26 ± 0.072 | 2.84 ± 0.14
31 | RAKALGIKVTNPKGRLA [RPL32] | 3.62 ± 0.3 | 3.33 ± 0.18 | 2.87 ± 0.23 | 3.39 ± 0.27
32 | GNAKESKALLREISNFS [SRP72] | 2.97 ± 0.17 | 2.94 ± 0.13 | 2.7 ± 0.14 | 3.01 ± 0.15
33 | ESDSKATLQSNEPTQKD [DSN1] | 2.81 ± 0.12 | 2.94 ± 0.14 | 2.99 ± 0.071 | 3.02 ± 0.086
34 | SPAALKQLASLKKSEEI [YMR153W/NUP53] | 2.2 ± 0.23 | 2.85 ± 0.13 | 2.65 ± 0.17 | 3.37 ± 0.15
35 | DEYQAAVEQRKKEKLDS [DPB4] | 3.47 ± 0.13 | 3.34 ± 0.14 | 3.38 ± 0.11 | 3.39 ± 0.095
36 | DFISPELIIDKVTCSSN [MED1] | 1.69 ± 0.1 | 1.75 ± 0.099 | 1.82 ± 0.22 | 1.37 ± 0.09
37 | TASSEASAGSKEGASTN [YMR153W/NUP53] | 3.09 ± 0.2 | 3.23 ± 0.14 | 3.32 ± 0.16 | 3.39 ± 0.12
38 | MSIDEEDKDSESFSEVC [YCG1] | 2.71 ± 0.15 | 2.34 ± 0.09 | 2.48 ± 0.15 | 2.43 ± 0.067
39 | SENRFPGWDFETEEIDP [RPL5] | 2.77 ± 0.14 | 2.78 ± 0.076 | 2.48 ± 0.078 | 2.5 ± 0.16
40 | LSIAIVGKDTPFTIYDG [PRE5] | 2.87 ± 0.066 | 2.94 ± 0.054 | 2.78 ± 0.08 | 3.07 ± 0.047
41 | RETDPLVYNMTSFEQGE [RPT4] | 3.09 ± 0.12 | 2.49 ± 0.11 | 3.23 ± 0.18 | 2.7 ± 0.068
42 | NEQEEKSEEVKAEDDTG [RPC37] | 3.2 ± 0.17 |  | 2.94 ± 0.2 | 2.85 ± 0.17
43 | TAEDSWAVISAFFREKG [RPB2] | 3.26 ± 0.12 | 3.02 ± 0.073 | 2.61 ± 0.068 | 2.94 ± 0.063
44 | QIVSYCSNNKNSIKNVP [SSN2] | 1.65 ± 0.083 | 2.14 ± 0.096 | 1.4 ± 0.096 | 1.79 ± 0.083
45 | NHASMDVYNRELDEHTT [BRR2] | 3.27 ± 0.068 | 3.16 ± 0.063 | 3.26 ± 0.047 | 3.26 ± 0.056
46 | ERNASEVRDATLNNIFR [GRR1] | 3.36 ± 0.17 |  | 3.41 ± 0.19 | 3.53 ± 0.16
47 | DDETPSCEVEEIGLLGG [SNU114] | 3.13 ± 0.11 | 3.35 ± 0.084 | 3.26 ± 0.07 | 3.14 ± 0.065
